The supplement of paper PMC11865577

test system: TO-3-N3 (biotin conjugate); test: pull-down binding Z-score (relative to library population); higher = stronger binding; details: RNA library: Library-2
Summary of the method: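 To score binding, a beads-only signal was subtracted, barcoded replicate probes were averaged with the highest and lowest dropped, and the value was converted to a Z-score using the library mean and standard deviation. The input was 1 μg of Cy5- or Cy3-end-labelled RNA library, heat-folded in phosphate/NaCl/KCl buffer and mixed for 60 min at 25 °C with streptavidin beads carrying 100 pmol of biotin-conjugated small molecule. Bound RNA was eluted in hot SDS and hybridised to a DNA barcode microarray at 55.5 °C for 20 h.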

Q: CUAAUAACACUAAAGGUUCAUUGCCUAUUAAUGUUAUAG was tested. Which “pull-down binding Z-score” value did it give?
A: 0.171

Q: How did the “pull-down binding Z-score” value turn out when “CUACAAAGCAACCAUGAUCUGUAUUGUCAAGUCCAUGGUAAUGCACAUGUAG” was run?
A: -0.654

Q: How did the “pull-down binding Z-score” value turn out when CUACACUAGUGCCACAAGAGCACUAUGUUAG was run?
A: -0.402

Q: For CUAGGUUUUUCUAUGUACUUGG, which “pull-down binding Z-score” value is on record?
A: 1.15

Q: With CUAGUUGUGAUGCAAUCAUGACUAG as the sequence, how does the “pull-down binding Z-score” value read?
A: -0.351

Q: Which “pull-down binding Z-score” value does the source give for CUAUACAUUCUUUAAGAGUUUGUGUAG here?
A: -0.365

Q: “CUAUACUGUUACUAGAUCAGGCAUUAGUGUCUGAUGUUGGUGAUAGUGCGG” was tested. Which “pull-down binding Z-score” value did it give?
A: -0.845

Q: For “CUAUAGUAGCUGGUGGUAUUGUAGCUAUCGUAG [SHAPE_invitro_SARS-CoV-2_Motif_182]”, which “pull-down binding Z-score” value is on record?
A: 0.653

Q: With “CUAUCAGGCCGGUAG [DMSMaPseq_invitro_SARS-CoV-2_Motif_406]” as the sequence, how does the “pull-down binding Z-score” value read?
A: -0.61

Q: Which “pull-down binding Z-score” value does the source give for “CUAUUCAAACAAUUGUUGAGGUUCAACCUCAAUUAGAGAUGGAACUUACACCAGUUGUUCAGACUAUUGAAGUGAAUAGUUUUAG [SHAPE_invivo_SARS-CoV-2_Multi_36_ComplexLevel_1]” here?
A: -0.49

Q: How did the “pull-down binding Z-score” value turn out when “CUCAAACCCGUCCUUGAUUGGCUUGAAGAGAAGUUUAAGGAAGGUGUAGAG [DMSMaPseq_invitro_SARS-CoV-2_Motif_41]” was run?
A: -0.564

Q: “CUCAGAGUAGAAAUUUACAAGAAUUUAAACCCAGGAG [DMSMaPseq_invitro_SARS-CoV-2_Motif_359]” was tested. Which “pull-down binding Z-score” value did it give?
A: -0.646

Q: With “CUCAGUCCAAGAUGGUAUUUCUACUACCUAGGAACUGGG [SHAPE_invivo_SARS-CoV-2_Motif_544]” as the sequence, how does the “pull-down binding Z-score” value read?
A: -0.642

Q: How did the “pull-down binding Z-score” value turn out when CUCCAAAAAGAG was run?
A: -0.901

Q: Which “pull-down binding Z-score” value does the source give for “CUCCAGCACGGAG [IAV_invivo_PB2_1_Motif_21+IAV_invivo_PB2_1_Motif_21]” here?
A: -0.457

Q: For “CUCCAGGAGGGG [IAV_invivo_PB2_1_Motif_10+IAV_invivo_PB2_1_Motif_10]”, which “pull-down binding Z-score” value is on record?
A: -0.481

Q: With “CUCCUUUGAUGGUUGCAUACAUGUUGGAG [IAV_invivo_PB2_1_Motif_8+IAV_invivo_PB2_1_Motif_8]” as the sequence, how does the “pull-down binding Z-score” value read?
A: -0.359

Q: For “CUCGUCUAUCUUCUGCAGGCUGCUUACGGUUUCGUCCGUGUUGCAGCCGAUCAUCAGCACAUCUAGGUUUCGUCCGGGUGUGACCGAAAGGUAAGAUGGAGAG”, which “pull-down binding Z-score” value is on record?
A: -0.0693

Q: How did the “pull-down binding Z-score” value turn out when “CUCGUCUAUCUUCUGCAGGCUGCUUACGGUUUCGUCCGUGUUGCAGCCGAUCAUCAGCACAUCUAGGUUUUGUCCGGGUGUGACCGAAAGGUAAGAUGGAGAG” was run?
A: -0.827

Q: For “CUCUAUGACAAACUUGUUUCAAGCUUUUUGGAAAUGAAGAGUGAAAAGCAAGUUGAACAAAAGAUCGCUGAG”, which “pull-down binding Z-score” value is on record?
A: -0.302

Q: For “CUCUCAUCGAUCUCCAAGAACUUGGAAAGUAUGAGCAG [SHAPE_invitro_SARS-CoV-2_Motif_456]”, which “pull-down binding Z-score” value is on record?
A: -0.197

Q: Which “pull-down binding Z-score” value does the source give for CUCUCAUUUUGUUAACUUAGACAACCUGAGAG here?
A: -0.827

Q: For “CUCUGGAACACUUUUACAAGACUUCAGAG [SHAPE_invivo_SARS-CoV-2_Motif_367]”, which “pull-down binding Z-score” value is on record?
A: -0.0115

Q: How did the “pull-down binding Z-score” value turn out when “CUCUUGAGUGCAUUAAAGACCUUCUAGCACGUGCUGGUAAAGCUUCAUGCACUUUGUCCGAACAACUGGACUUUAUUGACACUAAGAG [SHAPE_invitro_SARS-CoV-2_Multi_69_ComplexLevel_1]” was run?
A: -0.706

Q: “CUCUUGUAAUGUAAACAGAUUUAAUGUUGCUAUUACCAGAG” was tested. Which “pull-down binding Z-score” value did it give?
A: 0.0416

Q: How did the “pull-down binding Z-score” value turn out when “CUGAAAAAUGGGAAUCUGGAGUAAAAGACUGUGUUGUAUUACACAGUUACUUCACUUCAGACUAUUACCAG” was run?
A: -0.376

Q: How did the “pull-down binding Z-score” value turn out when CUGACAAAGUUUUCAG was run?
A: 0.631

Q: Which “pull-down binding Z-score” value does the source give for “CUGACUUAACAAAGCCUUACAUUAAGUGGGAUUUGUUAAAAUAUGACUUCACGGAAGAGAGGUUAAAACUCUUUGACCGUUAUUUUAAAUAUUGG” here?
A: -0.707

Q: For “CUGAUCCUAGUUUUCUGGGUAG [SHAPE_invivo_SARS-CoV-2_Motif_108]”, which “pull-down binding Z-score” value is on record?
A: -0.135

Q: Which “pull-down binding Z-score” value does the source give for “CUGCACUGUUAGCGGGUACAAUCACUUCUGGUUGGACCUUUGGUGCAG [SHAPE_invitro_SARS-CoV-2_Motif_437]” here?
A: -0.428

Q: “CUGCAGAUGCAG [IAV_invivo_HA_4_Motif_2+IAV_invivo_HA_4_Motif_2]” was tested. Which “pull-down binding Z-score” value did it give?
A: -0.112

Q: CUGCCUAUAUGGAAG was tested. Which “pull-down binding Z-score” value did it give?
A: -0.492

Q: For CUGCUUUUGGCUUAGUUGCAG, which “pull-down binding Z-score” value is on record?
A: 0.285

Q: How did the “pull-down binding Z-score” value turn out when “CUGGAAUUGCCGUUUUAG [SHAPE_invivo_SARS-CoV-2_Motif_210]” was run?
A: 0.0793

Q: For “CUGGACUCUAAAUAGAAACCAACCUGCUGCAACAGCAUUGGCCAACACAAUAGAAGUGUUCAGAUCAAAUGGCCUCACGGCCAAUGAGUCUGG”, which “pull-down binding Z-score” value is on record?
A: -0.791

Q: “CUGGCAGUAACCAG [SHAPE_invivo_SARS-CoV-2_Motif_538]” was tested. Which “pull-down binding Z-score” value did it give?
A: -0.215

Q: “CUGGGAAACUGUUAAAAUUCAGUGGUCCCAG [IAV_invivo_PB2_1_Motif_27+IAV_invivo_PB2_1_Motif_27]” was tested. Which “pull-down binding Z-score” value did it give?
A: -0.682

Q: “CUGGGCCAUAAGGACCAG [IAV_invivo_NP_5_Motif_20+IAV_invivo_NP_5_Motif_20]” was tested. Which “pull-down binding Z-score” value did it give?
A: -0.0792

Q: How did the “pull-down binding Z-score” value turn out when “CUGGGGGCAAUCAGUUUCUGG [IAV_invivo_HA_4_Motif_20+IAV_invivo_HA_4_Motif_20]” was run?
A: 1.05

Q: Which “pull-down binding Z-score” value does the source give for “CUGGUCCAUGCUCAUACCCAAGCAGAAAGUGGCAGGCCCUCUUUGUAUCAGAAUGGACCAG [IAV_invivo_NS1_NEP_8_Motif_8+IAV_invivo_NS1_NEP_8_Motif_8]” here?
A: -0.528

Q: Which “pull-down binding Z-score” value does the source give for “CUGUAGCUGCAUUUCACCAAGAAUGUAGUUUACAG [DMSMaPseq_invitro_SARS-CoV-2_Motif_500]” here?
A: 0.437

Q: Which “pull-down binding Z-score” value does the source give for CUGUCACUAAG here?
A: -0.404

Q: “CUGUCAUGGAAGCAAGUACUGGCAG [IAV_invivo_PA_3_Motif_16+IAV_invivo_PA_3_Motif_16]” was tested. Which “pull-down binding Z-score” value did it give?
A: 0.591

Q: Which “pull-down binding Z-score” value does the source give for “CUGUCCAAGACAUGUGAUCUGCACCUCUGAAGACAUGCUUAACCCUAAUUAUGAAGAUUUACUCAUUCGUAAGUCUAAUCAUAAUUUCUUGGUACAG” here?
A: -0.274

Q: With “CUGUGGGUUUUACACUUAAAAACACAG [DMSMaPseq_invitro_SARS-CoV-2_Motif_239]” as the sequence, how does the “pull-down binding Z-score” value read?
A: -0.233

Q: How did the “pull-down binding Z-score” value turn out when “CUGUUAAUGUAGCAUUUGAGCUUUGGGCUAAGCGCAACAUUAAACCAG” was run?
A: 0.0322

Q: With “CUGUUCCACCAUUGAAGAGCUCAG [IAV_invivo_PB1_2_Motif_38+IAV_invivo_PB1_2_Motif_38]” as the sequence, how does the “pull-down binding Z-score” value read?
A: -0.372

Q: For CUGUUGAUUCAUCACAG, which “pull-down binding Z-score” value is on record?
A: 1.37

Q: How did the “pull-down binding Z-score” value turn out when “CUGUUGGUACCAAUUUACCUUUACAGCUAGGUUUUUCUACAGGUGUUAACCUAGUUGCUGUACCUACAG” was run?
A: -0.959

Q: For CUGUUUGGAUGACAG, which “pull-down binding Z-score” value is on record?
A: -0.461

Q: How did the “pull-down binding Z-score” value turn out when CUGUUUUUCAG was run?
A: -0.739

Q: With “CUUACUGACAAUGUAUACAUUAAAAAUGCAGACAUUGUGGAAG [DMSMaPseq_invitro_SARS-CoV-2_Motif_59]” as the sequence, how does the “pull-down binding Z-score” value read?
A: -0.453

Q: How did the “pull-down binding Z-score” value turn out when “CUUAGCUGUCUUUGAUAAAAAUCUCUAUGACAAACUUGUUUCAAGCUUUUUGGAAAUGAAGAGUGAAAAGCAAGUUGAACAAAAGAUCGCUGAG [SHAPE_invivo_SARS-CoV-2_Motif_73]” was run?
A: 0.216

Q: For “CUUAGGGACAACCUUGAACCUGGG [IAV_invivo_PA_3_Motif_29+IAV_invivo_PA_3_Motif_29]”, which “pull-down binding Z-score” value is on record?
A: -0.637

Q: “CUUAGUUUUAAG [DMSMaPseq_invitro_SARS-CoV-2_Motif_263]” was tested. Which “pull-down binding Z-score” value did it give?
A: -0.781

Q: Which “pull-down binding Z-score” value does the source give for “CUUAUGUUGGUUGCCAUAACAAGUGUGCCUAUUGGGUUCCACGUGCUAGCGCUAACAUAGG” here?
A: -1.06

Q: “CUUCACAUAUGUAUUGUUCUUUUUACCCUCCAGAUGAGGAUGAAGAAGAAGGUGAUUGUGAAG” was tested. Which “pull-down binding Z-score” value did it give?
A: -0.494

Q: With “CUUCAUUAAAAGAAUUACUGCAAAAUGGUAUGAAUGGACGUACCAUAUUGGGUAGUGCUUUAUUAGAAG” as the sequence, how does the “pull-down binding Z-score” value read?
A: -0.675

Q: “CUUCCGAGUCAUAGGAAACUAUGACAUACAGAUCAACAGGGGCUCGCUUGAGCCCCCCAGCCAGUCGGAGG [mMTR1]” was tested. Which “pull-down binding Z-score” value did it give?
A: -0.97

Q: How did the “pull-down binding Z-score” value turn out when CUUCUGCUGCUCUUCAACCUGAAGAAGAGCAAGAAGAAG was run?
A: -0.349

Q: “CUUCUUGAAAUACUCCAAAAAGAGAAAGUCAACAUCAAUAUUGUUGGUGACUUUAAACUUAAUGAAG” was tested. Which “pull-down binding Z-score” value did it give?
A: 0.115

Q: For “CUUCUUGCAUGUGACUUAUGUCCCUGCACAAGAAAAG [SHAPE_invitro_SARS-CoV-2_Motif_449]”, which “pull-down binding Z-score” value is on record?
A: -0.329

Q: For “CUUGAACAAUGGAACCUAGUAAUAGGUUUCCUAUUCCUUACAUGGAUUUGUCUUCUACAAUUUGCCUAUGCCAACAGG”, which “pull-down binding Z-score” value is on record?
A: -0.5

Q: Which “pull-down binding Z-score” value does the source give for “CUUGAACAAUGGAACCUAGUAAUAGGUUUCCUAUUCCUUACAUGGAUUUGUCUUCUACAAUUUGCCUAUGCCAACAGGAAUAGGUUUUUGUAUAUAAUUAAG” here?
A: -0.828

Q: With CUUGAUGAUUUUGUUGAAAUAAUAAAAUCCCAAG as the sequence, how does the “pull-down binding Z-score” value read?
A: -0.466
